# Measured values taken from publication PMC8151308.
# Target: LEL CD81-SA labelled with Cy3 (UniProt P60033)
# Experiment: dynamic light scattering + other: nanoparticle tracking analysis; nanotraps (LEL CD81-SA-Cy3 on PEG-b-PLA nanoparticles, 0.50 mg/mL) mixed with HC VMPs (E2-GFP on PEG-b-PLA nanoparticles, 0.15 mg/mL) in 0.01 M sodium phosphate buffer pH 7.4, 25 °C; aggregation monitored after 5, 10, 20 and 30 min
substance,measurement,value
"chimeric E2 core-GFP protein (E2 core, 412-645 a.a., of hepatitis C virus fused with superfolder GFP) (from UniProt P27958 412-645) (domain or fragment)","percentage of aggregates (DLS, after 30 min)",33%
